From the supplement of paper PMC9732359
± gives the uncertainty stated by the source.

Assay: protein stability index of a GFP-peptide fusion (yeast GPS) (PSI 1-4); higher = more stable; sorted into four equal gates, so the index is relative within each strain
Procedure, shortened: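 Mid-log yeast cultures in leucine-free medium, carrying a pooled plasmid library, were sorted into four equal gates by their GFP/Cherry fluorescence ratio. Each plasmid expressed Cherry along with GFP fused upstream of a tiled 17-residue yeast protein peptide. Plasmids recovered from each gate were PCR-amplified and Illumina-sequenced, with reads assigned to strains by barcodes. The protein stability index was obtained by summing each gate's read frequency weighted by its gate number.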

Sequence	protein stability index (doa10∆)	protein stability index (pdr5∆)	protein stability index (san1∆)	protein stability index (ubr1∆)
IVDPTAEQLKISLSVHT [RRP46]	1.64 ± 0.042	1.81 ± 0.044	2.34 ± 0.057	2.04 ± 0.043
IVFVHSRKETSRTATWL [BRR2]	2.53 ± 0.11	2.67 ± 0.12	2.57 ± 0.21	2.89 ± 0.077
IVIDVDYNKKQDRIQDV [MED1]	3.16 ± 0.15	3.13 ± 0.091	2.99 ± 0.094	3.09 ± 0.077
IVKTSSGNEMPPQDAEG [RPS19A]	2.3 ± 0.25	3.46 ± 0.29	–	–
IVNGQTFSYVDSSLQPE [YMR129W/POM152]	2.47 ± 0.05	2.67 ± 0.059	2.62 ± 0.052	2.06 ± 0.042
IVNVLSKCLNLISDSNI [SWI3]	2.05 ± 0.043	1.77 ± 0.038	1.65 ± 0.073	2 ± 0.029
IVPLHSPFLMGHPMTKS [SEC65]	2.76 ± 0.083	2.57 ± 0.07	2.57 ± 0.079	2.79 ± 0.055
IVSKEYEKNFEATLESK [ESC2]	2.98 ± 0.24	3.08 ± 0.17	2.9 ± 0.088	2.88 ± 0.18
IVVMDCFNLPVVGTETR [RRI1]	2.24 ± 0.13	2.66 ± 0.12	2.29 ± 0.17	–
IWDSQKFFIMIVKGNII [POP4]	1.37 ± 0.069	1.44 ± 0.096	1.38 ± 0.15	1.32 ± 0.083
IWRKVPGDVLDKDAFIP [SNU114]	3.6 ± 0.28	–	–	–
IYDDWLDRISSYTAFSR [PRP8]	2.16 ± 0.05	1.75 ± 0.044	1.92 ± 0.073	2.24 ± 0.039
IYKPLLFEIVSNADTNQ [SRB8]	1.71 ± 0.06	2.11 ± 0.066	2.33 ± 0.09	1.49 ± 0.078
IYKSIFNVVDVGVDQLS [YJL039C/NUP192]	3.11 ± 0.055	2.92 ± 0.047	3.05 ± 0.041	3.05 ± 0.042
IYNKMIGVLNNSSESDE [RPN13]	2.74 ± 0.14	3.12 ± 0.12	2.94 ± 0.06	2.94 ± 0.067
IYQHLASHNEKDQDSQI [SRP72]	2.58 ± 0.092	2.45 ± 0.074	2.53 ± 0.12	2.78 ± 0.099
IYQVPEKDLEHWLQLAK [POP1]	3.22 ± 0.12	3.13 ± 0.13	3.42 ± 0.091	3.1 ± 0.099
IYRDRSTFTKHLIKCFF [ITC1]	2.11 ± 0.043	1.68 ± 0.038	2.21 ± 0.046	2.26 ± 0.031
IYRYKYKVMHQIRACKD [PRP8]	2.56 ± 0.099	2.14 ± 0.086	2.45 ± 0.078	1.99 ± 0.088
IYSPEGLRLDGRRWNEL [SKI6]	1.42 ± 0.16	1.77 ± 0.19	–	–
KAAFLGSEVRLRDDTLP [COR1]	2.54 ± 0.06	2.98 ± 0.057	2.93 ± 0.061	2.68 ± 0.05
KAALERLKVFEGIPPPY [RPL16A]	2.57 ± 0.096	2.84 ± 0.12	3.09 ± 0.092	2.69 ± 0.085
KAELPQWYTLQSQLNVT [MED8]	2.77 ± 0.055	2.9 ± 0.047	2.8 ± 0.05	2.69 ± 0.056
KAHPNFPIALQWTGGRG [FAS1]	2.62 ± 0.13	2.64 ± 0.12	2.2 ± 0.096	2.01 ± 0.092
KAKIIPGNGKHASENIS [SIR4]	2.61 ± 0.11	3.04 ± 0.13	2.67 ± 0.13	2.81 ± 0.12
KAKRQINSGTNSANGSS [SSN3]	2.52 ± 0.057	2.68 ± 0.058	2.92 ± 0.057	2.91 ± 0.046

Sequence	protein stability index (doa10∆)	protein stability index (pdr5∆)	protein stability index (san1∆)	protein stability index (ubr1∆)
KALILAPTRELVQQIQK [PRP28]	2.67 ± 0.087	2.82 ± 0.055	2.75 ± 0.073	3 ± 0.069
KANISLETLEHNGAPHH [RPO21]	3.29 ± 0.16	3.05 ± 0.15	3.19 ± 0.12	–
KAPEAEQVLSAAATFPI [RPL13A]	2.97 ± 0.071	2.76 ± 0.075	2.96 ± 0.078	2.81 ± 0.04
KASELKLALGIALEGYR [RPN2]	2.62 ± 0.15	2.28 ± 0.18	–	2.56 ± 0.097
KASTISRGAVSGQKAGL [RPL2A]	2.46 ± 0.044	2.36 ± 0.055	2.67 ± 0.055	2.87 ± 0.046
KASVLEISPQDSIASVL [GAL11]	3.27 ± 0.09	3.39 ± 0.066	3.13 ± 0.083	3.13 ± 0.086
KDFLKAVDKVISGYKKF [RPT1]	3.21 ± 0.074	3.38 ± 0.09	3.12 ± 0.092	3.33 ± 0.051
KDHLLLEEEFVSNSEIL [RPT2]	2.87 ± 0.09	2.83 ± 0.065	2.83 ± 0.066	2.74 ± 0.078
KDIAKRQFKEILTVKEE [RRP40]	2.2 ± 0.045	2.4 ± 0.048	2.46 ± 0.057	2.52 ± 0.042
KDIIDPKLTSIFERMIE [RPN2]	2.68 ± 0.14	2.99 ± 0.11	2.93 ± 0.078	2.66 ± 0.1
KDLEIRKLEISSRFKHR [GAL11]	2.87 ± 0.099	2.76 ± 0.081	3.16 ± 0.13	2.81 ± 0.053
KDLVTENAYDNPLADAE [PRE4]	3.11 ± 0.09	3.34 ± 0.12	3.32 ± 0.11	3.21 ± 0.063
KDNECSSFEENNDLESV [RRI2]	3.13 ± 0.16	3.12 ± 0.16	3.1 ± 0.17	3.34 ± 0.17
KDQRATTPYMTKYERAR [RPO26]	2.56 ± 0.057	3.01 ± 0.051	2.44 ± 0.11	3.04 ± 0.048
KDRFDIDEKSQFVETIV [RPN2]	2.15 ± 0.05	2.48 ± 0.069	1.93 ± 0.066	2.17 ± 0.059
KDSVTECSKDMKEDGLS [SIR4]	3.21 ± 0.12	3.45 ± 0.066	3.23 ± 0.07	3.32 ± 0.049
KDSYINANTIETAKMIE [FAS2]	3.14 ± 0.045	3.07 ± 0.044	3.18 ± 0.032	3.16 ± 0.044
KDWTDTFVYILEKLIFD [SRB8]	2.39 ± 0.067	2.72 ± 0.058	2.73 ± 0.074	1.93 ± 0.052
KDYEAKTKAMSLSIEEN [POP1]	2.57 ± 0.13	2.55 ± 0.089	2.28 ± 0.082	2.95 ± 0.083
KDYHTLANNVESKLRDD [RPS18A]	3.29 ± 0.14	3.48 ± 0.15	3.39 ± 0.11	3.33 ± 0.088
KEAALKTMIKTIEKDKM [SMC2]	2.8 ± 0.17	1.83 ± 0.14	1.57 ± 0.13	2.03 ± 0.061
KEAFEEEIKQSARNYDK [SMC1]	3.21 ± 0.078	3.09 ± 0.082	3.06 ± 0.051	3.31 ± 0.056
KEEFRLMISPKDEETTE [RRI2]	1.75 ± 0.069	1.68 ± 0.055	1.14 ± 0.14	1.5 ± 0.039
KEEVCQGMEGTVDLALF [YMR129W/POM152]	3.45 ± 0.21	3.44 ± 0.27	3.26 ± 0.2	–
KEFDETIFNLPKNKLVP [FAS1]	3.5 ± 0.17	3.39 ± 0.18	3.59 ± 0.085	3.07 ± 0.2
KEIRAFDKLLNIPRREL [SRB4]	2.6 ± 0.08	2.46 ± 0.07	2.73 ± 0.08	1.95 ± 0.071
